Assay results published in paper PMC11430399, “Cold-induced degradation of core clock proteins implements temperature compensation in the Arabidopsis circadian clock” (Science Advances, 2024).

Target: T1, LOV KELCH PROTEIN 2 fused with GFP (LKP2-GFP) (Arabidopsis thaliana, UniProt Q8W420 1-611)
T1 construct: LKP2, Arabidopsis thaliana, AT2G18915; Own promoter-driven genomic LKP2; source: Arabidopsis 35Sp:PRR5-F/lkp2-cr3/LKP2-GFP transgenic seedlings, in protein extract
Assay: co-IP; LKP2-GFP immunoprecipitated with anti-GFP antibodies from 35Sp:PRR5-F/lkp2-cr3/LKP2-GFP seedlings kept at 12° or 28°C for 24 hours with MG132; PRR5-FLAG detected by Western blot; three biological replicates
Conditions: partners not purified

T1 sequence (Q8W420 whole entry, the tested form may be a part): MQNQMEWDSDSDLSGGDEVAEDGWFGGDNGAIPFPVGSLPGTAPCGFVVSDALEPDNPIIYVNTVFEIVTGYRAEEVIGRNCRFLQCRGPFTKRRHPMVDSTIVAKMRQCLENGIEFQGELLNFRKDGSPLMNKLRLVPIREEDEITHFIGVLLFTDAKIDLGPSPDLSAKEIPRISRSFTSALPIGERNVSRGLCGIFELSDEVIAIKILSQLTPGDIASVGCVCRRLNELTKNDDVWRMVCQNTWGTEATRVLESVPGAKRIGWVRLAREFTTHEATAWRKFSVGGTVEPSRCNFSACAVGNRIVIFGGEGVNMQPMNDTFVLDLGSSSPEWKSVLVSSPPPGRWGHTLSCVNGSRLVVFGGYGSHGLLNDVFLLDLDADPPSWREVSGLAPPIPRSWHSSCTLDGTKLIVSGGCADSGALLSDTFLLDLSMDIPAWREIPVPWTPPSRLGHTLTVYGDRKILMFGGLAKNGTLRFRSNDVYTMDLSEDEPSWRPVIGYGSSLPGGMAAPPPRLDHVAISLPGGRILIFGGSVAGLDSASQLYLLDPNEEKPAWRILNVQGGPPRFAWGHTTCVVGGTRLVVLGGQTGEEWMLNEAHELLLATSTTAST

B1: PSEUDO-RESPONSE REGULATOR 5 with a C-terminal triple FLAG tag (PRR5-FLAG) (natural protein, Arabidopsis thaliana, UniProt Q6LA42 1-558, looked up)
chain: MTSSEEVVEVTVVKAPEAGGGKLSRRKIRKKDAGVDGLVKWERFLPKIALRVLLVEADDSTRQIIAALLRKCSYRVAAVPDGLKAWEMLKGKPESVDLILTEVDLPSISGYALLTLIMEHDICKNIPVIMMSTQDSVNTVYKCMLKGAADYLVKPLRRNELRNLWQHVWRRQTSLAPDSFPWNESVGQQKAEGASANNSNGKRDDHVVSGNGGDAQSSCTRPEMEGESADVEVSARDAVQMECAKSQFNETRLLANELQSKQAEAIDFMGASFRRTGRRNREESVAQYESRIELDLSLRRPNASENQSSGDRPSLHPSSASAFTRYVHRPLQTQCSASPVVTDQRKNVAASQDDNIVLMNQYNTSEPPPNAPRRNDTSFYTGADSPGPPFSNQLNSWPGQSSYPTPTPINNIQFRDPNTAYTSAMAPASLSPSPSSVSPHEYSSMFHPFNSKPEGLQDRDCSMDVDERRYVSSATEHSAIGNHIDQLIEKKNEDGYSLSVGKIQQSLQREAALTKFRMKRKDRCYEKKVRYESRKKLAEQRPRIKGQFVRQVQSTQAP
notes: PRR5, Arabidopsis thaliana; source: Arabidopsis 35Sp:PRR5-F transgenic seedlings (also 35Sp:PRR5-F/lkp2-cr3/LKP2-GFP), in protein extract; not shown: 3xFLAG, C-terminal, kept
fold of co-immunoprecipitated PRR5-FLAG at 12°C against 28°C: 15.9 fold
